# Reference: US20070196376A1 (AstraZeneca / MedImmune, published 2007)
# B1: mAb 7.159.2 (antibody, V domains shown)
# VH: QVQLVQSGAEVKKPGASVKVSCKASGYTFTSYDINWVRQATGQGLEWMGWMNPNSGNTGYAQKFQGRVTMTRNTSISTAYMELSSLRSEDTAVYYCARDPYYYYYGMDVWGQGTTVTVSS
# VL: QSVLTQPPSVSAAPGQKVTISCSGSSSNIENNHVSWYQQLPGTAPKLLIYDNNKRPSGIPDRFSGSKSGTSATLGITGLQTGDEADYYCETWDTSLSAGRVFGGGTKLTVLG
# notes: Fully human XenoMouse hybridoma mAb, lambda light chain (V1-19/JL2); Sister clones 7.159.1 and 7.159.2 are said to be identical; also called 7.159.1; 7_159_1
# B2: mAb 7.34.1 (antibody, V domains shown)
# VH: QVQLQESGPGLVKPSETLSLTCTVSGGSISSYYWSWIRQPPGRGLEWIGYFFYSGYTNYNPSLKSRVTMSVDTSKNQFSLKLSSVTAADTAVYYCACITGTTKGGMDVWGQGATVTVSS
# VL: QSVLTQAPSVSGAPGQRVTISCTGRSSNIGAGYDVHWYQQFPGTAPKLLIYGNSNRPSGVPDRFSGSKSGTSASLAITGLQAEDEADYYCQSYDSSLSGSVFGGGTKLTVLG
# notes: Fully human XenoMouse hybridoma mAb, lambda light chain (V1-13/JL2); also called ATCC PTA-7423
# What was measured:
# [1] = molecular target: T1, human insulin-like growth factor-I (IGF-I) (human, UniProt P05019 49-118); test: Biacore high-resolution, mAb captured, IGF-I injected over a range of concentrations
# T1 construct: also called IGF1; IGF-1
# [2] = molecular target: T1, human insulin-like growth factor-I …; test: Biacore low-resolution analysis, IGF-I; low-resolution screen, not high-resolution (294.0 pM)
# Procedure: (§1) The label-free surface plasmon resonance (SPR), or Biacore, was utilized to measure the antibody affinity to the antigen. For this purpose, a high-density goat anti-human antibody surface over a CM5 Biacore chip was prepared using routine amine coupling. All the mAbs were diluted to approximately 20 μg/ml in HBS-P running buffer containing 100 gg/ml BSA. Each mAb was captured on a separate surface using a 30-second contact time at 10 μL/min., and a 5-minute wash for stabilization of the mAb baseline.
# (§2) The samples were prepared in the HBS-P running buffer described above. […] Drift-corrected binding data for the 34 mAbs was prepared by subtracting the signal from a control flow cell and subtracting the baseline drift of a buffer injected just prior to each antigen injection. […] A mass transport coefficient was used in fitting the data.
# [3] = molecular target: T2, human insulin-like growth factor-II (IGF-II) (human, UniProt P01344 25-91); test: Biacore low-resolution screen, mAb captured, IGF-II injected; off-rate held constant in the fit; off-rate marked with asterisk; low-resolution screen, 5-minute dissociation
# T2 construct: also called IGF2; IGF-2
# Procedure: as §1, §2
# mouse IGF-I = mouse IGF-I (mouse, UniProt P05017 49-118); test: cell-based or functional assay
# mouse IGF-II = mouse IGF-II (mouse, UniProt P09535 25-91); test: cell-based or functional assay
# [4] = molecular target: T1, human insulin-like growth factor-I …; test: Biacore low-resolution screen, mAb captured, IGF-I injected
# Procedure: as §1, §2
# [5] = molecular target: T2, human insulin-like growth factor-II …; test: Biacore high-resolution, mAb captured, IGF-II injected over a range of concentrations
# [6] = molecular target: T2, human insulin-like growth factor-II …; test: cell-based or functional assay
# [7] = molecular target: T1, human insulin-like growth factor-I …; test: cell-based or functional assay
# [8] = molecular target: T2, human insulin-like growth factor-II …; test: cell-based or functional assay; remark: listed apart in the source
# [9] = molecular target: T1, human insulin-like growth factor-I …; test: cell-based or functional assay; remark: listed apart in the source
# [10] = molecular target: T2, human insulin-like growth factor-II …; test: Biacore low-resolution analysis, IGF-II
# Procedure: as §1, §2
# [11] = molecular target: T2, human insulin-like growth factor-II …; test: cell-based or functional assay; remark: listed apart in the source
# [12] = molecular target: T2, human insulin-like growth factor-II …; test: cell-based or functional assay; remark: listed apart in the source
# [13] = molecular target: T1, human insulin-like growth factor-I …; test: cell-based or functional assay; remark: listed apart in the source
# [14] = molecular target: T2, human insulin-like growth factor-II …; test: Biacore low-resolution screen, mAb captured, IGF-II injected
# Procedure: as §1, §2
# [15] = molecular target: T2, human insulin-like growth factor-II …; test: Biacore high-resolution, mAb captured, IGF-II injected over a range of concentrations; second value, row without label
# [16] = molecular target: T1, human insulin-like growth factor-I …; test: Biacore high-resolution, mAb captured, IGF-I injected over a range of concentrations; second value, row without label
# [17] = molecular target: T1, human insulin-like growth factor-I …; test: Biacore low-resolution analysis, IGF-I
# Procedure: as §1, §2
Kd [1] [pM],"Mouse IGF-I EC50 (nM), n = 1, phosphorylation of hIGF-IR in NIH3T3 cells (mouse IGF-I) [nM]","Mouse IGF-I EC50 (nM), n = 2, phosphorylation of hIGF-IR in NIH3T3 cells (mouse IGF-I) [nM]","Mouse IGF-II EC50 (nM), n = 1, phosphorylation of hIGF-IR in NIH3T3 cells (mouse IGF-II) [nM]","Mouse IGF-II EC50 (nM), n = 2, phosphorylation of hIGF-IR in NIH3T3 cells (mouse IGF-II) [nM]",Kd [4] [pM],koff [4] [s⁻¹],kon [4] [M⁻¹ s⁻¹],Kd [5] [pM],"% MAX Activation, mean (n = 2), IGF-II pTYR of hIGF-IR in NIH3T3 cells [6] [%]","EC50 (nM), mean (n = 2), IGF-II pTYR of hIGF-IR in NIH3T3 cells [6] [nM]","% MAX Activation, mean (n = 2), IGF-I pTYR of hIGF-IR in NIH3T3 cells [7] [%]","EC50 (nM), mean (n = 2), IGF-I pTYR of hIGF-IR in NIH3T3 cells [7] [nM]","EC50 (nM), n = 1, IGF-II pTYR, BxPC3 cells [8] [nM]","EC50 (nM), n = 2, IGF-II pTYR, BxPC3 cells [8] [nM]","Max % Inhibition (133.3 nM), n = 2, IGF-II pTYR, BxPC3 cells [8] [%]","Max % Inhibition (333.3 nM), n = 1, IGF-II pTYR, BxPC3 cells [8] [%]","EC50 (nM), n = 1, IGF-I pTYR, BxPC3 cells [9] [nM]","EC50 (nM), n = 2, IGF-I pTYR, BxPC3 cells [9] [nM]","Max % Inhibition (333.3 nM), n = 1, IGF-I pTYR, BxPC3 cells [9] [%]",other results,Binder
294,2.8,5.7,3.1,5,216,0.00093,4.3e+06,1.9,28.6,3.1,16.5,7.4,1.6,1.7,91.2,100,3.3,1.6,100,"Kd [2]: 216 pM; koff [3]: < 1e-05 s⁻¹; Max % Inhibition (333.3 nM), n = 2, IGF-I pTYR, BxPC3 cells [9]: 100%; Kd [10]: 2.9 pM; EC50 (nM), n = 1, IGF-II Proliferation, BxPC3 cells [11]: 0.8 nM; EC50 (nM), n = 2, IGF-II Proliferation, BxPC3 cells [11]: 0.9 nM; Max % Inhibition (133.3 nM), n = 2, IGF-II Proliferation, BxPC3 cells [11]: 118%; Max % Inhibition (333.3 nM), n = 1, IGF-II Proliferation, BxPC3 cells [11]: 120%; % Inhibition, mean (n = 2), IGF-II Proliferation Assay, NIH3T3/hIGF-IR cells [12]: 99.3%; EC50 (nM), mean (n = 2), IGF-II Proliferation Assay, NIH3T3/hIGF-IR cells [12]: 7.6 nM; % Inhibition, mean (n = 3), IGF-I Proliferation Assay, NIH3T3/hIGF-IR cells [13]: 77%; EC50 (nM), mean (n = 3), IGF-I Proliferation Assay, NIH3T3/hIGF-IR cells [13]: 24.1 nM; Kd [14]: < 2.86 pM; kon [14]: 3.5e+06 M⁻¹ s⁻¹",B1
436,6,10.2,4,9.7,615,0.0032,5.2e+06,164,21.5,2.5,14.2,9.4,2,1.9,89.7,100,5.9,3.8,100,"Kd [15]: 162 pM; Max % Inhibition (333.3 nM), n = 2, IGF-I pTYR, BxPC3 cells [9]: 98.5%; Kd [16]: 421 pM; Kd [10]: 60 pM; EC50 (nM), n = 1, IGF-II Proliferation, BxPC3 cells [11]: 0.5 nM; EC50 (nM), n = 2, IGF-II Proliferation, BxPC3 cells [11]: 6.7 nM; Max % Inhibition (133.3 nM), n = 2, IGF-II Proliferation, BxPC3 cells [11]: 109%; Max % Inhibition (333.3 nM), n = 1, IGF-II Proliferation, BxPC3 cells [11]: 117%; % Inhibition, mean (n = 2), IGF-II Proliferation Assay, NIH3T3/hIGF-IR cells [12]: 73.6%; EC50 (nM), mean (n = 2), IGF-II Proliferation Assay, NIH3T3/hIGF-IR cells [12]: 16.3 nM; % Inhibition, mean (n = 3), IGF-I Proliferation Assay, NIH3T3/hIGF-IR cells [13]: 72.6%; EC50 (nM), mean (n = 3), IGF-I Proliferation Assay, NIH3T3/hIGF-IR cells [13]: 23.4 nM; Kd [14]: 60 pM; koff [14]: 0.00018 s⁻¹; kon [14]: 3e+06 M⁻¹ s⁻¹; Kd [17]: 615 pM",B2
